Measurements as given in patent US20240279356A1 (Xencor, published 2024).
Positions count from the first letter of the chain named. Values belong to the binder of their own block, whether it stands above or below them.

Key:
human MSLN antigen [1] = molecular target: T1, human MSLN antigen (human, UniProt Q13421 296-580, limits assumed); experiment: MSLN KD of the binding domain (Octet BLI, Example 2B(a)); quoted in Example 3B(a)
T1 construct: Soluble antigen for BLI; also called Mesothelin; MESO
Source text: Variants of MESO-C were engineered by introducing point substitutions into the variable heavy region (VH) and the variable light region (VL) to generate 11 VH variants and 16 VL variants (sequences for which are depicted in FIG. 18 as H1.1-H1.13 and in FIG. 19 as L1.1-L1.18). An additional 4 VL variants were generated by combining useful point substitutions (sequences for which are depicted in FIG. 19 as L1.19-L1.22). WT and variant variable heavy regions were paired with WT and variant variable light regions to generate variant variable regions (Fvs) which were produced in the context of anti-MSLN×anti-CD3 bispecific antibodies. The bispecific antibodies were screened for MSLN binding affinity using Octet®, a BioLayer Interferometry (BLI)-based method. Experimental steps for Octet® generally include the following: Immobilization (capture of ligand to a biosensor); Association (dipping of ligand-coated biosensors into wells containing the analyte); and Dissociation (returning of biosensors to well containing buffer). In an initial screening, anti-human Fc sensors were used to capture the bispecific mAbs and dipped into human MSLN antigen (one concentration to screen large library). The resulting dissociation constant of illustrative variants (KD), association rate (kₐ), dissociation rate (kd), as well as sensorgram response are depicted in FIG. 20. In further screening of favorite variants identified in the initial screen (and combination variants), bispecific mAbs were dipped into multiple concentrations of human MSLN antigen, data for which are depicted in FIG. 21 (from various screens).

human MSLN antigen [2] = molecular target: T1, human MSLN antigen; experiment: Octet BLI on human MSLN antigen (Example 2B(a)); KD quoted in the FIG. 35 legend
Summary of the method: (§1)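 Anti-MSLN×anti-CD3 bispecifics carrying MESO-C VH/VL variant Fvs were captured on anti-human Fc biosensors and dipped into human MSLN antigen, followed by buffer dissociation. Initial library screen used one antigen concentration; selected and combination variants were run at multiple concentrations, giving KD, ka and kd.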

cyno MSLN [3] = molecular target: T2, cyno MSLN (Macaca fascicularis (cynomolgus)); experiment: Octet BLI; bsAb on anti-human Fc sensor, cyno MSLN as analyte, one concentration
T2 construct: soluble antigen for Octet; also called cynomolgus MSLN

human MSLN antigen [4] = molecular target: T1, human MSLN antigen; experiment: Octet BLI; bsAb on anti-human Fc sensor, human MSLN as analyte, one concentration
Summary of the method: as §1

cyno MSLN [5] = molecular target: T2, cyno MSLN; experiment: Octet BLI, several concentrations; lower table, column head only 'cyno MSLN (M)'
human MSLN antigen [6] = molecular target: T1, human MSLN antigen; experiment: MSLN binding affinity (Octet BLI, Example 2B(a)); quoted in the RTCC example
[7] = molecular target: T3, MSLN on OVCAR8 (MSLN^high) and other cancer cell lines (UniProt Q13421 296-598); experiment: flow cytometry on OVCAR8 cells, detected with A647-labelled anti-human Fc mAb
T3 construct: whole, on cells; Endogenous surface MSLN; also called MSLN^high OVCAR8 cells; MSLN^low SKOV3 and HT29 cells
Procedure: Next, the effect of MSLN binding affinity was investigated. 100,000 OVCAR8 (MSLN^high) cells were treated with the indicated concentrations of the indicated test articles. […] Further, XENP32852 and XENP32853 which differ only in CD3 binding affinity have identical binding to OVCAR8 cells confirming that avid binding is due to the MSLN binding domain.

T1 sequence (Q13421 other isoform, or with tags, fused parts or gaps limits assumed): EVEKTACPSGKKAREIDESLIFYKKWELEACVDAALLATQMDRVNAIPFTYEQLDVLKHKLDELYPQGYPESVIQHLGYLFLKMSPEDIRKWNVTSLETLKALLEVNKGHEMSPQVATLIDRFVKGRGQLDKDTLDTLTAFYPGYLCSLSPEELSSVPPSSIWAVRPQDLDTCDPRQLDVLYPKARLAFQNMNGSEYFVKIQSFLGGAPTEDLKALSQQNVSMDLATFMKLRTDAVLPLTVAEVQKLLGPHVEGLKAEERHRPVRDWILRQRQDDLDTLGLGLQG
T3 sequence (Q13421 other isoform, or with tags, fused parts or gaps limits assumed): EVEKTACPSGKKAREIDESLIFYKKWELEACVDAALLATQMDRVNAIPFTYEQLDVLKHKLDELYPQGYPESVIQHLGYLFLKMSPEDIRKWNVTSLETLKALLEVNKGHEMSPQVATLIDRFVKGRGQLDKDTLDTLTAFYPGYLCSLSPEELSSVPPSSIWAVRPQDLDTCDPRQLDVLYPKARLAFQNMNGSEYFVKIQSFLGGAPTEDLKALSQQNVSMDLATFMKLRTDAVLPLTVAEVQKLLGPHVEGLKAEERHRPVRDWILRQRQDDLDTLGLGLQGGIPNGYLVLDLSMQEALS

- Kd (human MSLN antigen [1]): 3.9 nM
B1: MESO-C[MSLN]_H1_L1.9 (Fab, V domains shown)
VH: QVQLVQSGAEVKKPGASVKVSCKASGYTFTSYWMHWVRQAPGQGLEWMGMIHPNSDNTIYYEKFQGRVTMTVDKSISTAYMELSRLRSDDTAVYYCAIIITPVVPKFDYWGQGTLVTVSS
VL: DIVMTQSPDSLAVSLGERATINCKASHDVGTSVAWYQQKPGQSPKLLIYWASTRHTGVPDRFTGSGSGTDFTLTISSLQAEDVAVYFCQQYYSYPLTFGAGTKLEIK
notes: It was tested as the Fab arm(s) of anti-MSLN x anti-CD3 bsAbs

- Kd (human MSLN antigen [1]): 10.2 nM
B2: MESO-C[MSLN]_H1.12_L1.9 (Fab, V domains shown)
VH: B1 VH with E62Q
VL: B1 VL
notes: as for B1

- Kd (human MSLN antigen [1]): 9.2 nM
B3: MESO-C[MSLN]_H1.3_L1 (Fab, V domains shown)
VH: B1 VH with M50W
VL: B1 VL with Y92S
notes: as for B1

- Kd (human MSLN antigen [1]): ~12.8 nM
B4: MESO-C[MSLN]_H1_L1.5 (Fab, V domains shown)
VH: B1 VH
VL: B1 VL with S32Y, Y92S
notes: as for B1

- Kd (human MSLN antigen [2]): 9.2 nM
- Kd (cyno MSLN [3]): 32.1 nM
- Response (cyno MSLN [3]): 0.827
- koff (cyno MSLN [3]): 0.0148 s⁻¹
- kon (cyno MSLN [3]): 459000 M⁻¹ s⁻¹
- Kd (human MSLN antigen [4]): 30 nM
- Response (human MSLN antigen [4]): 0.915
- koff (human MSLN antigen [4]): 0.0147 s⁻¹
- kon (human MSLN antigen [4]): 491000 M⁻¹ s⁻¹
- Kd (cyno MSLN [5]): 10 nM
B5: XENP32552 (bispecific antibody)
heavy: QVQLVQSGAEVKKPGASVKVSCKASGYTFTSYWMHWVRQAPGQGLEWMGWIHPNSDNTIYYEKFQGRVTMTVDKSISTAYMELSRLRSDDTAVYYCAIIITPVVPKFDYWGQGTLVTVSSASTKGPSVFPLAPSSKSTSGGTAALGCLVKDYFPEPVTVSWNSGALTSGVHTFPAVLQSSGLYSLSSVVTVPSSSLGTQTYICNVNHKPSDTKVDKKVEPKSCDKTHTCPPCPAPPVAGPSVFLFPPKPKDTLMISRTPEVTCVVVDVKHEDPEVKFNWYVDGVEVHNAKTKPREEEYNSTYRVVSVLTVLHQDWLNGKEYKCKVSNKALPAPIEKTISKAKGQPREPQVYTLPPSREEMTKNQVSLTCDVSGFYPSDIAVEWESDGQPENNYKTTPPVLDSDGSFFLYSKLTVDKSRWEQGDVFSCSVMHEALHNHYTQKSLSLSPGK
scFv-Fc: not shown
light: DIVMTQSPDSLAVSLGERATINCKASHDVGTSVAWYQQKPGQSPKLLIYWASTRHTGVPDRFTGSGSGTDFTLTISSLQAEDVAVYFCQQYSSYPLTFGAGTKLEIKRTVAAPSVFIFPPSDEQLKSGTASVVCLLNNFYPREAKVQWKVDNALQSGNSQESVTEQDSKDSTYSLSSTLTLSKADYEKHKVYACEVTHQGLSSPVTKSFNRGEC
notes: 1+1 Fab-scFv-Fc

- Kd (human MSLN antigen [6]): 246 nM
B6: XENP33367 (bispecific antibody)
heavy: B5 heavy
Fab-scFv-Fc: QVQLVQSGAEVKKPGASVKVSCKASGYTFTSYWMHWVRQAPGQGLEWMGWIHPNSDNTIYYEKFQGRVTMTVDKSISTAYMELSRLRSDDTAVYYCAIIITPVVPKFDYWGQGTLVTVSSASTKGPSVFPLAPSSKSTSGGTAALGCLVKDYFPEPVTVSWNSGALTSGVHTFPAVLQSSGLYSLSSVVTVPSSSLGTQTYICNVNHKPSNTKVDKKVEPKSCGGGGSGGGGSQAVVTQEPSLTVSPGGTVTLTCGSSTGAVTTSNYANWVQQKPGKSPRGLIGGTNKRAPGVPARFSGSLLGGKAALTISGAQPEDEADYYCALWYSNHWVFGGGTKLTVLGKPGSGKPGSGKPGSGKPGSEVQLVESGGGLVQPGGSLRLSCAASGFTFSTYAMNWVRQAPGKGLEWVGRIRSKANNYATYYADSVKGRFTISRDDSKNTLYLQMNSLRAEDTAVYYCVRHGNFGDSYVSWFAYWGQGTLVTVSSGGGGSGGGGSKTHTCPPCPAPPVAGPSVFLFPPKPKDTLMISRTPEVTCVVVDVKHEDPEVKFNWYVDGVEVHNAKTKPREEQYNSTYRVVSVLTVLHQDWLNGKEYKCKVSNKALPAPIEKTISKAKGQPREPQVYTLPPSREQMTKNQVKLTCLVKGFYPSDIAVEWESNGQPENNYKTTPPVLDSDGSFFLYSKLTVDKSRWQQGNVFSCSVMHEALHNHYTQKSLSLSPGK
light: B5 light with Y94F
notes: 2+1 Fab2-scFv-Fc

- Kd (human MSLN antigen [2]): 0.74 nM
- Kd (cyno MSLN [3]): 0.887 nM
- Response (cyno MSLN [3]): 0.9
- koff (cyno MSLN [3]): 0.000594 s⁻¹
- kon (cyno MSLN [3]): 669000 M⁻¹ s⁻¹
- EC50 (read off the curve) [7]: ~0.2 µg/mL
- Kd (human MSLN antigen [4]): 0.628 nM
- Response (human MSLN antigen [4]): 1.01
- koff (human MSLN antigen [4]): 0.000409 s⁻¹
- kon (human MSLN antigen [4]): 651000 M⁻¹ s⁻¹
B7: XENP32562 (bispecific antibody)
heavy: B5 heavy with W50M
scFv-Fc: not shown
light: B5 light with G30L
notes: 1+1 Fab-scFv-Fc

- Kd (human MSLN antigen [2]): 3.9 nM
- Kd (cyno MSLN [3]): 21.5 nM
- Response (cyno MSLN [3]): 0.822
- koff (cyno MSLN [3]): 0.013 s⁻¹
- kon (cyno MSLN [3]): 608000 M⁻¹ s⁻¹
- Kd (human MSLN antigen [4]): 15.3 nM
- Response (human MSLN antigen [4]): 0.953
- koff (human MSLN antigen [4]): 0.00887 s⁻¹
- kon (human MSLN antigen [4]): 578000 M⁻¹ s⁻¹
- Kd (cyno MSLN [5]): 6.7 nM
B8: XENP32567 (bispecific antibody)
heavy: B5 heavy with W50M
scFv-Fc: not shown
light: B5 light with S92Y
notes: 1+1 Fab-scFv-Fc

- Kd (human MSLN antigen [6]): 90.4 nM
B9: XENP33366 (bispecific antibody)
heavy: B5 heavy
Fab-scFv-Fc: B6 Fab-scFv-Fc
light: B5 light with T31Q
notes: 2+1 Fab2-scFv-Fc
